Reference: patent US20260242504A1 (published 2026)

Biological target: T1, recombinant human 5T4 protein (5T4/His) (UniProt Q13641 32-355)
T1 chain: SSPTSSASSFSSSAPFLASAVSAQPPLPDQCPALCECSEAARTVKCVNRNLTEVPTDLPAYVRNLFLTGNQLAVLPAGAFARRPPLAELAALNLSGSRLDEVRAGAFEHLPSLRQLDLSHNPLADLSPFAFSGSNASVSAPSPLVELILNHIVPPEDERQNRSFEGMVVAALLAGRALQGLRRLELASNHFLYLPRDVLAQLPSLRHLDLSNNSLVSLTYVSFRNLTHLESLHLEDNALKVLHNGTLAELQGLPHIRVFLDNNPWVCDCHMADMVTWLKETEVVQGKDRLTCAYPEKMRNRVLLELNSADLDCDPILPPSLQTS
Experiment: ELISA

B1: 53D tribody (other)
chain 1: QVQLVQSGAEVKKPGASVKVSCKASGYSFTSYYMHWVKQSPGQGLEWIGRINPNNGVTLYNQKFKDRVTMTRDTSISTAYMELSRLRSDDTAVYYCARSTMITNYVMDYWGQGTLVTVSSASTKGPSVFPLAPSSKSTSGGTAALGCLVKDYFPEPVTVSWNSGALTSGVHTFPAVLQSSGLYSLSSVVTVPSSSLGTQTYICNVNHKPSNTKVDKKVEPKSCDKTHTGPGGGSPGQVQLVQSGAELKKPGASVKVSCKASGYTFTRYTMHWVRQAPGQCLEWMGYINPSRGYTNYNQKFKDKATLTADKSTSTAYMELRSLRSDDTAVYYCARYYDDHYSLDYWGQGTLVTVSSASGGGGSGGGGSGGGGSAGDIQLTQSPSILSASVGDRVTITCRASSSVSYMNWYQQKPGKAPKRWIYDTSKVASGVPYRFSGSGSGTEYTLTISSMQPEDFATYYCQQWSSNPLTFGCGTKVEIKSG
chain 2: not shown
With B1 the EC50 was 0.79 nM.

B2: 53P tribody (other)
chain 1: QVQLVQSGAEVKKPGASVKVSCKASGYSFTSYYMHWVKQSPGQGLEWIGRINPNNGVTLYNQKFKDRVTMTRDTSISTAYMELSRLRSDDTAVYYCARSTMITNYVMDYWGQGTLVTVSSASTKGPSVFPLAPSSKSTSGGTAALGCLVKDYFPEPVTVSWNSGALTSGVHTFPAVLQSSGLYSLSSVVTVPSSSLGTQTYICNVNHKPSNTKVDKKVEPKSCDKTHTGPGGGSPGQVQLVQSGAELKKPGASVKVSCKASGYTFTRYTMHWVRQAPGQCLEWMGYINPSRGYTNYNQKFKDKATLTADKSTSTAYMELRSLRSDDTAVYYCARYYDDHYSLDYWGQGTLVTVSSASGGGGSGGGGSGGGGSAGDIQLTQSPSILSASVGDRVTITCRASSSVSYMNWYQQKPGKAPKRWIYDTSKVASGVPYRFSGSGSGTEYTLTISSMQPEDFATYYCQQWSSNPLTFGCGTKVEIKSG
chain 2: not shown
In the case of B2, the EC50 is reported as 0.84 nM.

B3: 53G tribody (other)
chain 1: QVQLVQSGAEVKKPGASVKVSCKASGYSFTSYYMHWVKQSPGQGLEWIGRINPNNGVTLYNQKFKDRVTMTRDTSISTAYMELSRLRSDDTAVYYCARSTMITNYVMDYWGQGTLVTVSSASTKGPSVFPLAPSSKSTSGGTAALGCLVKDYFPEPVTVSWNSGALTSGVHTFPAVLQSSGLYSLSSVVTVPSSSLGTQTYICNVNHKPSNTKVDKKVEPKSCDKTHTGPGGGSPGQVQLVQSGAELKKPGASVKVSCKASGYTFTRYTMHWVRQAPGQCLEWMGYINPSRGYTNYNQKFKDKATLTADKSTSTAYMELRSLRSDDTAVYYCARYYDDHYSLDYWGQGTLVTVSSASGGGGSGGGGSGGGGSAGDIQLTQSPSILSASVGDRVTITCRASSSVSYMNWYQQKPGKAPKRWIYDTSKVASGVPYRFSGSGSGTEYTLTISSMQPEDFATYYCQQWSSNPLTFGCGTKVEIKSG
chain 2: not shown
B3 gave an EC50 of 0.78 nM.
